This note sets out measurements from patent US20250051788A1.

Holding throughout (experiment): anti-FLAG IP-MS vs mock IP
In test [1] the target is Thioredoxin superfamily protein (ATHM2) (AT4G03520) (Arabidopsis thaliana) (UniProt Q9SEU8).
For test [2], the target named is Nodulin-related protein 1 (NRP1) (AT2G03440) (Arabidopsis thaliana) (UniProt Q9ZQ80).
Test [3] concerns the target Phosphoserine aminotransferase (PSAT) (AT4G35630) (Arabidopsis thaliana) (UniProt Q96255).
Test [4] has as its target thioglucoside glucohydrolase 1 (TGG1) (AT5G26000) (Arabidopsis thaliana) (UniProt P37702).
Sequence of UniProt P37702 (P37702 20-541 limits assumed): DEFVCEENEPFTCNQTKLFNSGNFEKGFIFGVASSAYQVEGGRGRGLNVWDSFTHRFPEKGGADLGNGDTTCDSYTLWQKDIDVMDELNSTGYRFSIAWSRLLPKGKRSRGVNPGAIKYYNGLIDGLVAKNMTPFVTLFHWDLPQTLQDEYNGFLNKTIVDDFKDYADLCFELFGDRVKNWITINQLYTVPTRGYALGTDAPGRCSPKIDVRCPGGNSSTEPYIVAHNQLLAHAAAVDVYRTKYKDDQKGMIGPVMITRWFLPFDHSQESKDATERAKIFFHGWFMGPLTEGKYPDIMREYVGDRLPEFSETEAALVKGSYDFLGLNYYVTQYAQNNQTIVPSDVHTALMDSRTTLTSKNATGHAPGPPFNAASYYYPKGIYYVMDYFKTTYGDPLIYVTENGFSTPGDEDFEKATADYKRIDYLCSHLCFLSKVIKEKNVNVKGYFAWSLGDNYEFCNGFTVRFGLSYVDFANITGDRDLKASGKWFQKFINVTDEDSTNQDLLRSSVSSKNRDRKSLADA

Sequence of UniProt Q96255 (Q96255 52-430): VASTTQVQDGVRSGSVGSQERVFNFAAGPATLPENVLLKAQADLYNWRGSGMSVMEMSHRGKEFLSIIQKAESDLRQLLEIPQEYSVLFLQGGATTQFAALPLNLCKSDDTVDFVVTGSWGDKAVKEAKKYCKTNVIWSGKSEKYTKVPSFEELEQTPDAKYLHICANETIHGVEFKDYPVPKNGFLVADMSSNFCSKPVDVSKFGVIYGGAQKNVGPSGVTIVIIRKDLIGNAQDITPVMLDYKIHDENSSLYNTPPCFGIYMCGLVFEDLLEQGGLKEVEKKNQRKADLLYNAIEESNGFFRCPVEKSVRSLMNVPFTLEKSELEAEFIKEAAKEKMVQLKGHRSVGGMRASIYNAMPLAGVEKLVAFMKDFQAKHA
Sequence of UniProt Q9SEU8 (Q9SEU8 73-186): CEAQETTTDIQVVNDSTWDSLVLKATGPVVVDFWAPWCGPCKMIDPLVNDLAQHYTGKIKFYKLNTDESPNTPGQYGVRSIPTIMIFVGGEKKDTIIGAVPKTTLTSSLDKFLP
Sequence of UniProt Q9ZQ80 (Q9ZQ80 whole entry): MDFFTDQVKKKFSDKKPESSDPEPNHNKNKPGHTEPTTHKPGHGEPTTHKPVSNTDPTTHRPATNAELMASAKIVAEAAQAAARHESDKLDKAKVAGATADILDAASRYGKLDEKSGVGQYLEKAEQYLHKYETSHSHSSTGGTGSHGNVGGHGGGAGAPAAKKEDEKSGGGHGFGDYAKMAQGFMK

Regarding “FLAG-BD (FLAG-tagged minimal Arabidopsis BRN1 protein that contains only the first two RRM domains) (from UniProt Q8LFS6 2-199)”, in test [1], the Log2(FC) Replicate 1/ Mock worked out at 0.585 log2, the Log2(FC) Replicate 2/ Mock is 2.17 log2, the Log2(FC) Replicate 3/ Mock is 3.39 log2 and the Log2(FC) Replicate 4/ Mock worked out at 3.09 log2. In test [2], the Log2(FC) Replicate 1/ Mock came out at 2 log2, the Log2(FC) Replicate 2/ Mock came out at 2.5 log2, the Log2(FC) Replicate 3/ Mock came out at 1.74 log2 and the Log2(FC) Replicate 4/ Mock is 1.87 log2. Besides, in test [3], the Log2(FC) Replicate 1/ Mock turned out to be 3.09 log2, the Log2(FC) Replicate 2/ Mock turned out to be 3.17 log2, the Log2(FC) Replicate 3/ Mock was found to be 1.81 log2 and the Log2(FC) Replicate 4/ Mock is 1.81 log2. In test [4], the Log2(FC) Replicate 1/ Mock was -0.214 log2, the Log2(FC) Replicate 2/ Mock was determined as 0.697 log2, the Log2(FC) Replicate 3/ Mock turned out to be 1.95 log2 and the Log2(FC) Replicate 4/ Mock is 1.84 log2.
